{"source": "the DeepSol protein solubility set", "data": [{"assay": "soluble on expression in E. coli; label from the status in PepcDB or PDB records", "values": [{"sequence": "MATVKIKFRPSSVDGKEGTVYYQVIHVRVARQISTSYRLFPAEWDKRRARIVAAPSDEGRRQHLSLLEGKIMEDTDRLEGIITTLERRRGAFTADDVVSAFNGGHYSLSFPVFMREVINGLKRLGKIRTSETYTSTLNSFIRFMEGRDVLPDDMDSDLMVAYEAWLESGGVSMNTISFYMRNLRAVYNRAVEKGLTVQRFPFKHVYTGVEKTTKRAVPLHVIKRLKSLDLSFEPAKAYARDMLLFSFYTRGMSMVDMAFLKKKDLNNGILSYRRKKTGQQLLIKWEPCMQEIVDRYNIPGSPYLLSVIDRPGTDERKQYINASHRINRHLKVLGKELGMSVPLTHYVARHSWASAARSKNIPISVISEGMGHDSETTTRIYLASLDTATIDRANKLILKSLQI", "soluble on expression in E. coli": "not soluble"}, {"sequence": "MAVLKIISWNVNGLRAVHRKGFLKWFMEEKPDILCLQEIKAAPEQLPRKLRHVEGYRSFFTPAERKGYSGVAMYTKVPPSSLREGFGVERFDTEGRIQIADFDDFLLYNIYFPNGKMSEERLKYKLEFYDAFLEDVNRERDSGRNVIICGNFNTAHREIDLARPKENSNVSGFLPVERAWIDKFIENGYVDTFRMFNSDPGQYTWWSYRTRARERNVGWRLDYFFVNEEFKGKVKRSWILSDVMGSDHCPIGLEIELLEHHHHHH", "soluble on expression in E. coli": "soluble"}, {"sequence": "MAVLWRLSAVCGALGGRALLLRTPVVRPAHISAFLQDRPIPEWCGVQHIHLSPSHHSGSKAASLHWTSERVVSVLLLGLLPAAYLNPCSAMDYSLAAALTLHGHWGLGQVVTDYVHGDALQKAAKAGLLALSALTFAGLCYFNYHDVGICKAVAMLWKL", "soluble on expression in E. coli": "not soluble"}, {"sequence": "MAVNVYSTSVTSDNLSRHDMLAWINESLQLNLTKIEQLCSGAAYCQFMDMLFPGSIALKKVKFQAKLEHEYIQNFKILQAGFKRMGVDKIIPVDKLVKGKFQDNFEFVQWFKKFFDANYDGKDYDPVAARQGQETAVAPSLVAPALNKPKKPLTSSSAAPQRPISTQRTAAAPKAGPGVVRKNPGVGNGDDEAAELMQQVNVLKLTVEDLEKERDFYFGKLRNIELICQENEGENDPVLQRIVDILYATDEGFVIPDEGGPQEEQEEY", "soluble on expression in E. coli": "soluble"}, {"sequence": "MAVSKNVTVIPARKHTRKSKDEEKPKLRVAAYCRVSTDSEEQATSYDTQIEHYTAYIQGHPDWMLAGIFADDGISGTNTKKREEFNRMIDECMAGNIDMIITKSISRFARNTLDCLKYIRQLKDKNIPVYFEKENINTMDSKGEVMLTIMASLAQQESQSLSQNVKLGLQYRYQQGEIQVNCARFLGYTKDENKRLVVVPEEAEIVKRIYREYLEGASMLKIARGLEADGILNGAGNERWHTSNINNILRNEKYIGDALLQKTYTVDFLTKKRVKNNGIVPQYYVENSHEAIIPREVFMQVQEELIRRRIVHTSPNGKTRTFSSNHVFAQIIICGKCGEVFRRVHWNNRGKKSIVWRCVSRLENTGLFCDARTVLESTIEQVLVTAINQTLCDKDSFLTTLRDNIATIINRESDKALADIDKRLEELQTELLKLATSNADYEKVGDEIHSLRDQKQKLQVENANRDELKKQIADMSTFLKKQSTALAEYDKQLVRRLIDKVTVFEDKFTVEFKSGVTVDVDE", "soluble on expression in E. coli": "soluble"}, {"sequence": "MAVYRTVQVNFWQDDFVLDLTPEERYFYVYLLTCSKTTQCGIFPFPKRLAEMETGYNRETVDKLVQRFVDYGKILYDAETRELFVLNWLRYNPVTNTNVEKCVLRELKGVKNKEFVHMFLQKCVEEELNVPMLLAHFGMPSDLAVDDVEPVCEEAEEEEVIEEETGSRVFSFYEQHFGSLSPHTVEELSAWMEDLSEELVLKALQIAFENNKRTVAYVKGILRGWHGKGFTKVSEVEADTASFRKKDLSVSTGETEEFLARCEEWEKNAPSEEELQRFLAERGWRP", "soluble on expression in E. coli": "soluble"}, {"sequence": "MAWTFDEKSPIYLQIAYRVKLKIASKELSMGQQLLPVREFAQEAGVNPNTVQRAFQELEKEGLVYSARTSGRFVTEDEKLIDQKRHEIAQTLMKNFVTEMTAIGFSSPEIKTIITDYIEQTGKDL", "soluble on expression in E. coli": "not soluble"}, {"sequence": "MAWWKAWIEQEGVTVASSSHFNPDPDAETLYKAMKGIGTNEQAIIDVLTKRSNTQRQQIAKSFKAQFGKDLTETLKSELSGKFERLIVALMYPPYRYEAKELHDAMKGLGTKEGVIIEILASRTKNQLREIMKAYEEDYGSSLEEDIQADTSGYLERILVCLLQGSRDDVSSFVDPALALQDAQDLYAAGEKIRGTDEMKFITILCTRSATHLLRVFEEYEKIANKSIEDSIKSETHGSLEEAMLTVVKCTQNLHSYFAERLYYAMKGAGTRDGTLIRNIVSRSEIDLNLIKCHFKKMYGKTLSSMIMEDTSGDYKNALLSLVGSDP", "soluble on expression in E. coli": "soluble"}, {"sequence": "MAYDLAVPGPIMQEVAQYLASLSGKAVVINIFAGHADRSLSQTQLAELLDKLLARHPGSAVILLDHRREIRIPLPPEVVINPFNTLHHAMALIAQAELIISPDTSVVHMAAAWNKPLIAVYKDVLLNNRLWAPGYDNARQIIVKCGKVHQHRGLVDRIIAALPETLLEHHHHHH", "soluble on expression in E. coli": "not soluble"}, {"sequence": "MAYNKEEKIKSLNRMQYEVTQNNGTEPPFQNEYWDHKEEGLYVDIVSGKPLFTSKDKFDSQCGWPSFTKPIEEEVEEKLDTSHGMIRTEVRSRTADSHLGHVFNDGPGPNGLRYCINSAALRFVPKHKLKEEGYESYLHLFNK", "soluble on expression in E. coli": "not soluble"}, {"sequence": "MCICPNRQTAASVGQRYGEPVVLRVDAGRMHRNGLPFFKADNGVWLTAQVPAAFLTRPRLEHHHHHH", "soluble on expression in E. coli": "not soluble"}, {"sequence": "MCILFIAIEQHPKYPLIICANRDEFHQRPTQAMHVWQESNILAGKDLQAGGTWLGLSSTGKFAALTNFRKLPLSEAPKKSRGDLVLQALADTKINMTAELAQQASQYHGFNLIYGSLKQLYCYDSVNNQSHQLSDGVHSICNGALDDIWPKMARGEKLLSETIRSQKNLSIEALFDLMTNDKQALPHLLPETGLDEEWEQLLSAIFIKSPTYGTRTTTIITQDVEGNVETYDRSYAPSGECITKQQFNLATVFDLEHHHHHH", "soluble on expression in E. coli": "not soluble"}, {"sequence": "MCMNKKRIYKFRRFLARKLDFPSDAVMYTPRINISVTGDEEITIENYRGIVEFSDENIKVNTEVGTISIDGKNFEIVFISGSTIILGGKFKTIAYGGDKNEALEHHHHHH", "soluble on expression in E. coli": "soluble"}, {"sequence": "MCMNTQSPPSPHDPHGAAALPFRLWTAEERRASLDTALREWRDGEDVWVYGYGSLIWRPDFDFVERRLATLHGHHRALLWSRVNRGTPECPGLVFGLDRGGSCRGVVYRLAGRQVPDYFPALWDREMSTGAYLPRWLRCATEHGPVNALVFIMNRANPAYIRALPEPELLAIVRRASGRYGPCTEYVVQTAQALRQAGIRDARLEQIARQLEAEVHPLGVLEHHHHHH", "soluble on expression in E. coli": "soluble"}, {"sequence": "MCMPRYTQPKKTWFYPVNFKIKAVELSLRNDMLSKDVAQALDIHPLMLSRWRKEYREGKFKKNQHYQSNSELMSKIPTKKELNKIKQLQKENDRLKMENDLLKKWQRYLAEVHQSDLDSSKNTKKPLEHHHHHH", "soluble on expression in E. coli": "soluble"}, {"sequence": "MCMQAQDVTIRDQEIKLGQFIKLANLVETGGAAKEVIAEGRVTVNGAVDTRRGKTLRDGDVVCIGTACARVVAGAADDDDYFDEKTANDDFDPEVWRNM", "soluble on expression in E. coli": "not soluble"}, {"sequence": "MCPILWTRNGSHCYYFSMEKKDWNSSLKFCADKGSHLLTFPDNQGVKLFGEYLGQDFYWIGLRNIDGWRWEGGPALSLRILTNSLIQRCGAIHRNGLQASSCEVALQWICKKVLY", "soluble on expression in E. coli": "soluble"}, {"sequence": "MCPKCGTECDKLFDSVCRDCFFETFKLIDLPLVLHVKICSSCGAYFHRSRWENIGNLEEVVLKAVENALFIHDEAGDVELYLEPKEITPYIYMVRAEVDAIVRGEPVHAEAATEVRVQRIACDMCSRESGGYFEAIIQIRAAGRFPTEEEKRRCSAIAREAMESMKKKGDRLAFISDYQEQKEGIDLYMGSMNASRQVCRMIISELGGSFAESPTLVGMKDGKNLYRITFAMRLPLEHHHHHH", "soluble on expression in E. coli": "not soluble"}, {"sequence": "MCSALVVAAPHSGSGKTTVTAAIARYHRVQGRKVTVFKVGPDFIDPMILRQASGELVYQLDLWLVGEQGCRALLHRAAMDSDLILIEGVMGLFDGTPSSADLAKYFNIPVLGVIDAKAMAQTFAAVTFGLAKFCEDLPFSGVIANRVNTERHAELLSVSLPKAFRFYGRIPKDDTITLPERHLGLVQAQELSDIDVQLDKAASHIANTGLTELPSQVEFFAQEDDNQENIIEGALAGTRIIIIRDSAFSFIYAANIAFLTQTGAELIYCSAMADVHLPDGDILYIPGGYPELYAEQLMNNVTFLSDIRAFSASNKPIVAECGGMLYLLEQLTDMEGQQFSMLGLMPGKATMQKKLAAIGSQWVPLPSFADAAEDSADNIMRGHSFHYSCAEIELEPSSQTTHHPSERAGEYVYQHNNILASYMHWYFPSNPSLTLRIFDKARYLLEHHHHHH", "soluble on expression in E. coli": "soluble"}, {"sequence": "MCSSPTTLFLLFALVSTSYALLGVGRTQSVAVSGRVICNGQPASGVKLKLYEKESTFDVLLEEATSDANGQFRLSGSKTEISTIDPKLNIYHKCNYNGLCYKKIGITIPDNYVSSGKTPSKTYDIGTLNLANQYTGQTTDCIN", "soluble on expression in E. coli": "not soluble"}, {"sequence": "MCTGLALETKDGLHLFGRNMDIEYSFNQSIIFIPRNFKCVNKSNKKELTTKYAVLGMGTIFDDYPTFADGMNEKGLGCAGLNFPVYVSYSKEDIEGKTNIPVYNFLLWVLANFSSVEEVKEALKNANIVDIPISENIPNTTLHWMISDITGKSIVVEQTKEKLNVFDNNIGVLTNSPTFDWHVANLNQYVGLRYNQVPEFKLGDQSLTALGQGTGLVGLPGDFTPASRFIRVAFLRDAMIKNDKDSIDLIEFFHILNNVAMVRGSTRTVEEKSDLTQYTSCMCLEKGIYYYNTYENNQINAIDMNKENLDGNEIKTYKYNKTLSINHVN", "soluble on expression in E. coli": "soluble"}, {"sequence": "MCTTCGCAEGNLYIEGDEHNPHSAFRSAPFAPAARPALNITGIKTPDFAPSQTAEGDLHYGHGEAGTHAPGMSQRRMLEVEIDVLDKNNRLAERNRARFAARQQLVLNLVSSPGSGKTTLLTETLMKLKDRVPCAVIEGDQQTVNDAARIRATGTPAIQVNTGKGCHLDAQMIADAAPRLPLDDHGILFIENVGNLVCPASFDLGEKHKVAVLSVTEGEDKPLKYPHMFAAASLMLLNKVDLLPYLNFDVEKCIASAREVNPEIEIILISATSGEGMDQWLAWLEAQRCA", "soluble on expression in E. coli": "not soluble"}, {"sequence": "MDAHQIISFIQNSKKATPVKVYLKGDLEKIDFPSDVKTFITGNAGTIFGEWAVVEPLLEANKANIEDYVIENDRRNSAIPLLDMKNI", "soluble on expression in E. coli": "not soluble"}, {"sequence": "MDAKETSATDLKRPREEDDNGGAATMETENGDQKKEPACFSTVIPGWFSEMSPMWPGEAHSLKVEKVLFQGKSDYQDVIVFQSATYGKVLVLDGVIQLTERDECAYQEMITHLPLCSIPNPKKVLVIGGGDGGVLREVARHASIEQIDMCEIDKMVVDVSKQFFPDVAIGYEDPRVNLVIGDGVAFLKNAAEGSYDAVIVDSSDPIGPAKELFEKPFFQSVARALRPGGVVCTQAESLWLHMDIIEDIVSNCREIFKGSVNYAWTSVPTYPSGVIGFMLCSTEGPDVDFKHPLNPIDESSSKSNGPLKFYNAEIHSAAFCLPSFAKKVIESKAN", "soluble on expression in E. coli": "soluble"}, {"sequence": "MDALIAQLQRQFRDYTISLYQQGFLDDQFTELKKLQDDGSPDFVSEVLSLFFEDCVKLISNMARALDTTGTVDFSQVGASVHQLKGSSSSVGAKRVKTLCVSFKECCEAKNYEGCVRCLQQVDIEYKALKTKLQDMFNLEKQIIQAGGIVPQVDIN", "soluble on expression in E. coli": "soluble"}, {"sequence": "MDALKLLTNRRSSKKLKHPAPDAAELEQIFQAATQVPDHGNMRPFRFTVIQGEVGLQRFRDVLKQTVAELNFGDDAMKKAEKVGNMAPMVIGVTFAPNRDVPKPKPEWEQMLTAGCAAYALQLAATAQGFDNVWITGMWVNSPLLREAFGCADKDKIIGLMMVGTPTEEVHKPKNTDLEAFVSHW", "soluble on expression in E. coli": "not soluble"}]}]}
